Laboratory results from patent US20050175724A1, “Composition for modulating a physiological reaction or inducing an immune response” (priority 2002, published 2005).

What was measured:
[1] = in vivo; cited from earlier work
[2] = delivered together with deoxycholate; cited from earlier work
salmonids = settings: in vivo; cited from earlier work
rainbow trout = experiment: Growth enhancement, intraperitoneal bST; format: in vivo, Oncorhynchus mykiss; settings: IP 20 μg bST/g live body weight weekly for 6 weeks
Method: Intraperitoneal (IP) administration dose per fish weekly was 20 μg bST/g live body weight for 6 weeks.

proteolytic enzyme = experiment: In vitro proteolytic enzyme inhibition (casein digestion by intestinal enzyme extract); format: biochemical, rainbow trout; settings: increasing level of inhibitor inclusion; FIGS. 5-12
Method: • 1. Centrifuge Sorvall model • 2. Bench-top blender • 3. Dissecting material (scissors) • 4. Centrifuge bottle • 5. Disposable cuvettes for spectrophotometer • 6. Microcentrifuge tubes 1.5 ml • 7. Spectrophotometer • 8. Vortexer • 9. Microplates reader from Biorad • 10. 50 mM Tris-HCl pH=7.5 • 11. Commassie blue staining solution • 12 BSA (1 mg\ml) standard solution • 13 TCA 20% • 14. Rainbow trouts pancreatic and duodenal tissues • 15.0.5% casein in 50 mM Tris-HCl pH=9 • 16.50 mM Tris-HCl+CaCl2 10 mM pH=7.5 Enzyme Extract • 1. Rainbow trout were weighed and sacrificed. • 2. Dissection was performed to remove the proximal small intestine from the fish. • 3. After weighing, the tissues were homogenised in 50 mM Tris-HCl ph=7.5 (1:10 w\v). • 4. Centrifuge at 16000×g for 30 min at 4° C. • 5. Keep the supernatant. Aliquot and store them at −20 C for further use. • 6. Perform Commassie assay to measure the amount of protein present in the enzyme extract. Commassie Blue Stain Protocol • 1. Weigh 160 mg of BSA in 10 ml of […] Tris-HCl pH=7.5. • 2. […] Read at 655 nm with the microplate reader from Biorad. […] Centrifuge at 12000×g for 5 min and read at 280 nm. […] Centrifuge at 12000×g for 5 min and read at 280 nm. […] Centrifuge at 12000×g for 5 min and read at 280 nm. […] Centrifuge at 12000×g for 5 min and read at 280 nm. […] Centrifuge at 12000×g for 5 min and read at 280 nm. […]

In the case of horseradish peroxidase, the “time to transport to the circulation after oral administration” value [1] is given as no more than 1 h.

In the case of “recombinant human GH: recombinant human growth hormone”, the “enhancement of oral absorption” value [2] is given as no more than 1000 fold.

B1: bovine GH: bovine growth hormone (protein, UniProt P01246 27-217, looked up)
Somatotropin: AFPAMSLSGLFANAVLRAQHLHQLAADTFKEFERTYIPEGQRYSIQNTQVAFCFSETIPAPTGKNEAQQKSDLELLRISLLLIQSWLGPLQFLSRVFTNSLVFGTSDRVYEKLKDLEEGILALMRELEDGTPRAGQILKQTYDKFDTNMRSDDALLKNYGLLSCFRKDLHKTETYLRVMKCRRFGEASCAF
In the case of B1, the “increase in growth rate” value (salmonids) is listed as “two to three-fold”.

B2: recombinant bST: recombinant bovine somatotropin (Monsanto Co.) (protein, UniProt P01246 27-217, looked up)
Somatotropin: B1 Somatotropin
With B2 the body weight gain (rainbow trout) was “significantly induces increased body weight gain”.

B3: lyophylized ovalbumin: individual protease inhibitor component of the Oralject cocktail (protein, UniProt P01012 2-386, looked up)
Ovalbumin: GSIGAASMEFCFDVFKELKVHHANENIFYCPIAIMSALAMVYLGAKDSTRTQINKVVRFDKLPGFGDSIEAQCGTSVNVHSSLRDILNQITKPNDVYSFSLASRLYAEERYPILPEYLQCVKELYRGGLEPINFQTAADQARELINSWVESQTNGIIRNVLQPSSVDSQTAMVLVNAIVFKGLWEKAFKDEDTQAMPFRVTEQESKPVQMMYQIGLFRVASMASEKMKILELPFASGTMSMLVLLPDEVSGLEQLESIINFEKLTEWTSSNVMEERKIKVYLPRMKMEEKYNLTSVLMAMGITDVFSSSANLSGISSAESLKISQAVHAAHAEINEAGREVVGSAEAGVDAASVSEEFRADHPFLFCIKHIATNAVLFFGRCVSP
In the case of B3, the “in vitro proteolytic enzyme inhibition” value (proteolytic enzyme) is reported as “affect to differing degrees”.

B4: spray-dried ovalbumin: individual protease inhibitor component of the Oralject cocktail (protein, UniProt P01012 2-386, looked up)
Ovalbumin: B3 Ovalbumin
For B4, the “in vitro proteolytic enzyme inhibition” value (proteolytic enzyme) was “affect to differing degrees”.
